Substrate: CCCC(=O)Oc1ccc([N+](=O)[O-])cc1
Test: purified protein
Assay type: biochemical, Geobacillus thermodenitrificans
Details: 20 mM Tris-HCl pH 8.0, 30°C

| Protein | Km [µM] | kcat [S-1] |
| --- | --- | --- |
| EstL5 (Geobacillus thermodenitrificans) (protein, without deduced signal peptide, N-terminal His tag, pET28b, E. coli BL21(DE3); two molecules in asymmetric unit) ALVVQDQLFTAAKPSIEQKRPSANEAKKRDGEIDIVALGDSLTRGTGDESGKGYIGYMVDELRQQTDEPIRVTNLAIRGLRSDGLLRQLGQSEIQRQIAMADLIVMTIGGNDLFQGGEALEWNVKELDEAKRQYIANLDRIFALLRRLNSEAVIFAIGLYNPFSDLDDAKRTSAIVRDWNFASAEVAAHYPNIVAVPTFDLFALHVNDYLYSDHFHPNKEGYKRIGERVASLITLTEEDRQ | 640 ± 2210 | 116.27±1.71 |
| EstL5 (Geobacillus thermodenitrificans; S207F) (protein, without deduced signal peptide, N-terminal His tag, pET28b, E. coli BL21(DE3); two molecules in asymmetric unit) ALVVQDQLFTAAKPSIEQKRPSANEAKKRDGEIDIVALGDSLTRGTGDESGKGYIGYMVDELRQQTDEPIRVTNLAIRGLRSDGLLRQLGQSEIQRQIAMADLIVMTIGGNDLFQGGEALEWNVKELDEAKRQYIANLDRIFALLRRLNSEAVIFAIGLYNPFSDLDDAKRTSAIVRDWNFAFAEVAAHYPNIVAVPTFDLFALHVNDYLYSDHFHPNKEGYKRIGERVASLITLTEEDRQ | 650 ± 1920 | 86.51±1.68 |
| EstL5 (Geobacillus thermodenitrificans; S207W) (protein, without deduced signal peptide, N-terminal His tag, pET28b, E. coli BL21(DE3); two molecules in asymmetric unit) ALVVQDQLFTAAKPSIEQKRPSANEAKKRDGEIDIVALGDSLTRGTGDESGKGYIGYMVDELRQQTDEPIRVTNLAIRGLRSDGLLRQLGQSEIQRQIAMADLIVMTIGGNDLFQGGEALEWNVKELDEAKRQYIANLDRIFALLRRLNSEAVIFAIGLYNPFSDLDDAKRTSAIVRDWNFAWAEVAAHYPNIVAVPTFDLFALHVNDYLYSDHFHPNKEGYKRIGERVASLITLTEEDRQ | 790 ± 2670 | 86.78±1.03 |

Reference: publication PMC10686790, “Crystal structure of the GDSL family esterase EstL5 in complex with PMSF reveals a branch channel of the active site pocket” (Acta Biochimica et Biophysica Sinica, 2023)
